Laboratory results published in patent US6582689B1, “IL-18/IGIF chemotherapeutic compositions” (Smithkline Beecham Corporation, priority 1998, dated 2003).
Entries after “also recorded” stand apart in the source; their conditions may differ. Where two headings read alike, the source gives them in different places.

Key:
[1] = tested on: B16F10 melanoma; test: advanced subcutaneous B16F10 melanoma, repeat with cyclophosphamide (Example VII); format: in vivo, mice; details: for regressions: treatment from median 100 mm^3 (Day 14)
[2] = tested on: B16F10 melanoma; test: advanced subcutaneous B16F10 melanoma (Example VI); format: in vivo, mice
Protocol: In this experiment, IL-18 was evaluated in an advanced syngeneic tumor model alone and in combination with chemotherapy. Mice bearing advanced subcutaneous B16F10 melanoma were treated with IL-18 alone or in combination with either cyclophosphamide or topotecan. Treatment was initiated on Day 11 postimplantation.

[3] = mouse, in vivo
Protocol: (§1) An experiment was conducted to determine the effectiveness of IL-18 on its own and in combination with doxorubicin in the 16/c mammary adenocarcinoma tumor model. The 16/c line was implanted subcutaneously at a 1:10 brei and allowed to grow to a median of 52-109 mm^3 before initiation of treatment. Doxorubicin was administered intravenously on Days 12 and 19 at 7.2, 12, and 20 mg/kg. IL-18 was administered subcutaneously at 1, 10, and 100 μg/mouse on a qD×21 schedule starting from Day 12. The endpoints of this study were tumor growth delay and regression.

[4] = toxicity and toxic deaths in the 16/c experiment (Example IX)
Protocol: as §1

[5] = tested on: mammary adenocarcinoma 16/c; test: subcutaneous mammary adenocarcinoma 16/c, IL-18 and doxorubicin (Example IX); format: in vivo, mouse; details: for regressions: alone or combined
Protocol: as §1

[6] = paclitaxel 24 mg/kg iv qD×5
[7] = tested on: Madison 109 lung carcinoma; test: subcutaneous Madison 109 lung carcinoma, IL-18 and paclitaxel (Example VIII); format: in vivo, mouse; details: for regressions: alone or combined
[8] = tested on: MOPC-315 plasmacytoma; test: advanced MOPC-315 plasmacytoma, confirmation with higher IL-18 doses (Example IV); format: in vivo, mice
Protocol: The activity of IL-18 in combination with topotecan in mice bearing advanced MOPC-315 plasmacytoma was confirmed in a large experiment in which higher doses of IL-18 were used. In this experiment, topotecan was administered q4D×6 beginning on Day 10 and IL-18 was given qD×30 beginning on the same day. Both drugs were administered intraperitonealy and activity was assessed by tumor measurements.

[9] = tested on: Lewis lung carcinoma
Protocol: Treatment was delayed until Day 7 when tumors were established and growing in the lungs. Half of the mice in each group were killed on Day 16 to determine effects of treatment on pulmonary tumor growth, the remaining mice were continued under treatment and monitored for survival. […] Topotecan was administered intraperitonealy q4D×7 beginning on Day 7 and ending on Day 32 and the doses shown are in mg/kg. Murine IL-18 was administered intraperitonealy UID from Day 7 to Day 32 and the doses shown are μg/mouse. There were 3 groups of control animals, all of which died between Day 17 and 30.

[10] = tested on: MOPC-315 plasmacytoma; test: established subcutaneous MOPC-315 plasmacytoma (Example III); format: in vivo, BALB/c mice
Protocol: The MOPC-315 plasmacytoma is analogous to the human cancer known as multiple myeloma. This tumor is a malignancy of the plasma cells, a mature form of B lymphocytes involved in antibody expression. MOPC-315 grows rapidly to a very large size in syngeneic BALB/c mice. It is not highly metastatic or invasive.
IL-18 was evaluated in mice bearing established subcutaneous MOPC-315 plasmacytoma. In order to increase chances of seeing an effect of immunotherapy, IL-18 was evaluated in combination with an effective chemotherapeutic agent as well as by monotherapy. IL-18 at 0.3, 1, 3, and 10 μg/mouse was administered daily intraperitonealy and topotecan was administered intraperitonealy on a q4D schedule at 9 and 15 mg/kg. Both drugs were started on Day 11 postimplantation when the median tumor volume ranged from 32 to 88 mg. Control tumors took 17.2 days to grow to 1 gram. (See FIGS. 5-7).

[11] = tested on: Lewis lung carcinoma; test: advanced systemic Lewis lung carcinoma, confirmation with higher IL-18 doses (Example II); details: for tumor weight and nodule count: Day 14
Protocol: This experiment included the use of higher doses of IL-18. […] The remaining mice were continued under treatment and monitored for survival. Topotecan was administered intraperitonealy q4D×6 on Days 7, 11, 15, 19, 23, and 29; dosage levels shown are mg/kg. Murine IL-18 was administered intraperitonealy qD×26 from Day 7 to Day 33; dosage levels shown are μg/mouse.

[12] = tested on: MOPC-315 plasmacytoma; test: advanced MOPC-315 plasmacytoma, schedule and route study (Example V); format: in vivo, mice
Protocol: The evaluation of IL-18 in combination with chemotherapy was repeated to establish: (a) how effective is IL-18 in tumor models when given subcutaneously and (b) whether IL-18 is active when given on an intermittent schedule or whether daily treatment is necessary. The experiment was set up again with topotecan in the advanced MOPC-315 plasmacytoma model with treatment starting on Day 10 when tumors were about 100 mm^3 in volume. Topotecan was given at its MTD of 15 mg/kg on a q4D regimen and IL-18 was given over a broad dosage range either intraperitonealy or subcutaneously on a q1D or q4D regimen. […] However, IL-18 was continued. (See FIGS. 11-13).

[13] = tested on: colon 26 adenocarcinoma; details: Hanaya et al. 1996; cited from earlier work
[14] = cyclophosphamide MTD 300 mg/kg q7D
[15] = topotecan MTD 15 mg/kg q4D, Day 16
[16] = topotecan MTD 15 mg/kg ip q4D from Day 11
[17] = topotecan 9 mg/kg ip q4D×6 from Day 7
[18] = topotecan 15 mg/kg ip q4D×6 from Day 7
[19] = IL-18 0.3 μg/mouse ip UID Day 7-32
[20] = IL-18 1 μg/mouse ip UID Day 7-32
[21] = IL-18 3 μg/mouse ip UID Day 7-32
[22] = IL-18 10 μg/mouse ip UID Day 7-32
[23] = IL-18 alone 0.3-10 μg/mouse ip UID, Day 16, no clear dose-response
[24] = IL-18 1 μg/mouse ip qD×26 Day 7-33
[25] = IL-18 3 μg/mouse ip qD×26 Day 7-33
[26] = IL-18 10 μg/mouse ip qD×26 Day 7-33
[27] = IL-18 30 μg/mouse ip qD×26 Day 7-33
[28] = IL-18 100 μg/mouse ip qD×26 Day 7-33

## O=P1(N(CCCl)CCCl)NCCCO1 (stereo not shown) [Cyclophosphamide, cyclophosphamide]
[1]; cyclophosphamide MTD
  tumor growth delay: 14 days
[1]; cyclophosphamide suboptimal dose 180 mg/kg
  tumor growth delay: 4 days
[1]
  regressions: no regressions
[2]; [14]
  increase in survival: 95%
  tumor growth delay: 14 days

## COc1cccc2c1C(=O)c1c(O)c3c(c(O)c1C2=O)C[C@@](O)(C(=O)CO)C[C@@H]3O[C@H]1C[C@H](N)[C@H](O)[C@H](C)O1 [Doxorubicin, doxorubicin]
[3]
  weight loss: no weight loss
[4]; mouse, in vivo, iv
  MTD: 20 mg/kg
[5]
  regressions: no regressions
[5]; doxorubicin 7.2, 12, 20 mg/kg iv
  tumor growth delay: dose-dependent tumor growth delay
[5]; doxorubicin at 1/3 of its MTD
  efficacy: little or no efficacy

## CC(=O)O[C@H]1C(=O)[C@@]2(C)[C@H]([C@H](OC(=O)c3ccccc3)[C@]3(O)C[C@H](OC(=O)[C@H](O)[C@@H](NC(=O)c4ccccc4)c4ccccc4)C(C)=C1C3(C)C)[C@]1(OC(C)=O)CO[C@@H]1C[C@@H]2O [Paclitaxel, paclitaxel, reference compound]
[6]
  body weight loss: 4.7 g
[7]
  regressions: no regressions
[7]; paclitaxel 12 mg/kg iv qD×5
  ILS (increased life span): 27% ILS
[7]; paclitaxel 12 mg/kg iv qD×5 (Days 9-13)
  T-C: tumor growth delay: T-C 3.5 days,
[7]; paclitaxel 24 mg/kg iv qD×5
  ILS (increased life span): 35% ILS
  T-C: tumor growth delay: T-C 9.7 days,
[7]; paclitaxel alone
  survival: minimal prolongation of survival
  tumor growth delay: minimal tumor growth delay

## CC[C@@]1(O)C(=O)OCc2c1cc1n(c2=O)Cc2cc3c(CN(C)C)c(O)ccc3nc2-1 [Topotecan, topotecan, reference compound]
[8]; topotecan MTD alone ip q4D×6 from Day 10
  complete regressions: 2/6
[8]; topotecan suboptimal dose alone
  effect on tumor: virtually no effect
[9]; topotecan 9.0 mg/kg (0.6×MTD) ip q4D×7 from Day 7
  Increase in Lifespan: 63%
[9]; topotecan 9.0 mg/kg ip q4D×7 from Day 7
  Median Survival Time: 36 days
[9]; topotecan 15 mg/kg (MTD) ip q4D×7 from Day 7
  Increase in Lifespan: 68%
[9]; topotecan 15 mg/kg ip q4D×7 from Day 7
  Median Survival Time: 37 days
[9]; [15]
  average number of pulmonary tumor nodules: 45
  suppression of tumor growth: > 90%
[10]; topotecan 9 mg/kg ip q4D
  regressions: no regressions
  tumor growth delay: 4 days
[10]; [16]
  complete regressions: 1/7
  tumor growth delay: about 12 days
[2]; topotecan at its MTD
  antitumor activity: inactive
[11]; [17]
  Increase in Lifespan: 42%
  Median Survival Time: 25.5 days
[11]; [18]
  Increase in Lifespan: 86%
  Median Survival Time: 33.5 days
[11]; topotecan MTD 15 mg/kg
  tumor weight and nodule count: good reduction in tumor weight and nodule count
[11]; topotecan lower dose 9 mg/kg
  tumor weight and nodule count: lesser effect on both parameters

B1: IL-18: cytokine, interferon-γ-inducing factor; murine IL-18 (SEQ ID NO:2) was administered to mice (protein)
chain: NFGRLHCTTAVIRNINDQVLFVDKRQPVFEDMTDIDQSASEPQTRLIIYMYKDSEVRGLAVTLSVKDSKMSTLSCKNKIISFEEMDPPENIDDIQSDLIFFQKRVPGHNKMEFESSLYEGHFLACQKEDDAFKLILKKKDENGDKSVMFTLTNLHQS
modifications: Mouse
[1]; IL-18 alone
  tumor growth delay: about 2 days
[1]
  regressions: no regressions
[8]; IL-18 alone 100 μg/mouse/day ip qD×30 from Day 10
  complete regressions: 4 of 6
[8]; IL-18 alone, doses lower than 100 μg/mouse/day
  effect on tumor: ineffective
[4]; IL-18 1 μg/mouse qD×21 from Day 12
  toxicity: Not Toxic
[4]; IL-18 10 μg/mouse qD×21 from Day 12
  toxicity: Not Toxic
[4]; IL-18 100 μg/mouse qD×21 from Day 12
  toxicity: Not Toxic
[9]; [19]
  Increase in Lifespan: 0%
  Median Survival Time: 22 days
[9]; [20]
  Increase in Lifespan: 2%
  Median Survival Time: 22.5 days
[9]; [21]
  Increase in Lifespan: 4%
  Median Survival Time: 23 days
[9]; [22]
  Increase in Lifespan: 9%
  Median Survival Time: 24 days
[9]; IL-18 alone 0.3-10 μg/mouse ip UID
  effect on survival time: no effect on survival time; also recorded: did not have an enhanced median survival time
[9]; [23]
  lung tumor nodule count: significantly decreased
  lung tumor weight: significantly decreased
[10]; IL-18 alone 0.3, 1, 3, 10 μg/mouse daily ip from Day 11
  tumor growth delay: 1.3 to 3.1 days
[10]; IL-18 alone 0.3-10 μg/mouse daily ip from Day 11
  effect on tumor growth of established tumors: only a minimal effect on the tumor growth; also recorded: no effect of IL-18 alone on tumor growth
[2]; IL-18 alone from Day 11
  ILS (effect on survival time): < 30%
  effect on tumor growth: no effect on tumor growth
[5]; IL-18 alone 1-100 μg/mouse, no dose-response
  tumor growth delay: less than a week
[5]
  regressions: no regressions
[12]; IL-18 alone q1D 100 μg/day, ip and sc
  antitumor activity: active
[12]; IL-18 alone q1D 100 μg/day, ip versus sc
  route comparison: intraperitoneal was more effective
[12]; IL-18 alone, intermittent, 1000 or 100 μg/dose
  induction of regression: ineffective in inducing regression
[7]; IL-18 1 μg sc qD×21
  T-C: tumor growth delay: T-C 1.7 days,
[7]; IL-18 10 μg sc qD×21
  ILS (increased life span): 12% ILS
  T-C: tumor growth delay: T-C 2.1 days,
[7]; IL-18 100 μg sc qD×21
  ILS (increased life span): 0% ILS
  T-C: tumor growth delay: T-C 2.8 days,
[7]; IL-18 alone at the low dose
  tumor growth: without delaying tumor growth
[7]
  regressions: no regressions
[13]
  metastasis and growth of tumor: inhibit the metastasis and growth of colon 26 adenocarcinoma
[11]; [24]
  Increase in Lifespan: 11%
  Median Survival Time: 20 days
[11]; [25]
  Increase in Lifespan: 0%
  Median Survival Time: 18 days
[11]; [26]
  Increase in Lifespan: 0%
  Median Survival Time: 18 days
[11]; [27]
  Increase in Lifespan: 3%
  Median Survival Time: 18.5 days
[11]; [28]
  Increase in Lifespan: 22%
  Median Survival Time: 22 days
